Measurements from paper PMC5405865.

Experiments:
[1] = biological target: The RNCs, denoted FLN5+L (with L = 21 to 110); assay: co-purification with the RNC, western blot
70S ribosomes = assay: NMR titration

Substance	occupancy of the purified RNCs [1]	reduction in resonance intensities with equimolar 70S ribosomes (70S ribosomes)
DnaK (from UniProt P0A6Y8 1-638) (natural protein)	< 1.5%	
trigger factor (from UniProt P0A850 1-432) (natural protein)	< 1.5%	
FLN5 Y719E, isolated unfolded variant of FLN5 (from UniProt P13466 646-750) (domain or fragment)		30%
FLN5∆12, 12-residue C-terminal truncation of isolated FLN5 (from UniProt P13466 646-738) (domain or fragment)		30%
